Like-named read-outs stand apart in the source and are kept apart here.

For assay [1], the target named is E. coli scaffold protein IscU (Escherichia coli) (UniProt P0ACD4). The assay is described as follows: non-reducing SDS-PAGE with densitometry.
Assay [2] has the same target. Put plainly: native MS.
Assay [3] deals with E. coli cysteine desulfurase IscS (Escherichia coli) (UniProt P0A6B7). Put plainly: native MS.
In assay [4] the target is E. coli scaffold protein IscU (Escherichia coli) (UniProt P0ACD4). The assay is described as follows: native MS. The source holds these as a separate data set.

UniProt P0A6B7, sequence (P0A6B7 whole entry): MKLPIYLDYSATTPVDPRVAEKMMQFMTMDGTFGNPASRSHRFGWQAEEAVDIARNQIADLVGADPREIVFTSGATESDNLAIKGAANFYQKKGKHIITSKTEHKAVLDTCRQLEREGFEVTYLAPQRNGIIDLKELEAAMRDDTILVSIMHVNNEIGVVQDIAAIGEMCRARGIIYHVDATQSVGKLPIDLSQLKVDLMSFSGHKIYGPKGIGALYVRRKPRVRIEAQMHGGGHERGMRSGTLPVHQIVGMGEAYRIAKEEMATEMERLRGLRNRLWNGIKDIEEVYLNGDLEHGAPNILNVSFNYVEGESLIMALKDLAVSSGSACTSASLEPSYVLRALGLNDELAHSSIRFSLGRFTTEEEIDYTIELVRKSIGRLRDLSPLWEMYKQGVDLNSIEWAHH

“E. coli scaffold protein IscU (from UniProt P0ACD4 1-128) (natural protein)” showed a percent dimer in assay [1] of 65%. The percent dimer (of the monomer-to-dimer ratio) in assay [2] came to 14%. In addition, in assay [3], the fraction of IscS2 lacking IscU was 11%, the fraction of the IscU2–IscS2 complex amounted to 94%, the fraction of the IscU2–IscS2 species was determined as 86% and the fraction of the IscU-IscS2 complex was found to be 47%. Besides, in assay [3], the fraction of the IscU-IscS2 species worked out at 6% and the stoichiometry N (IscU per IscS dimer) stood at 2. Also, in assay [4], the percent dimer amounted to 59%, the percent dimer (of the monomer-to-dimer ratio) was 22% and the stoichiometry N is 2.

These data come from PMC7262672.
